Legend:
[1] = target: T1, EhRNaseIII256 (full-length EhRNaseIII) (Entamoeba histolytica, UniProt C4LU64 2-256); experiment: EMSA; 5 mM Mg2+; EMSA (1x): 30 mM Tris-HCl pH 7.5, 30 mM NaCl, 5 mM MgCl2, 1 mM DTT, 0.1 mM EDTA, 5% glycerol; room temperature 10 min then ice 20 min; 6% native PAGE, 0.5x TBE; settings: protein: recombinant, tags: His-Sumo removed by Ulp1, chain copies: 2, blunt
T1 sequence: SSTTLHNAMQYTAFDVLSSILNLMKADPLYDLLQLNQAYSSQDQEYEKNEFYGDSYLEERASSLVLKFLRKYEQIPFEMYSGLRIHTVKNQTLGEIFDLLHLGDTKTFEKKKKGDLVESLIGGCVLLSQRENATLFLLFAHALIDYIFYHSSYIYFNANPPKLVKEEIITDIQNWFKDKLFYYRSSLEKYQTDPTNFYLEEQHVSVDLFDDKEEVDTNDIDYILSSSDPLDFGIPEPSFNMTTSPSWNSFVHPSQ

EhRNaseIII229 [2] = target: T2, EhRNaseIII229 (Entamoeba histolytica, UniProt C4LU64 2-229); experiment: as above; settings: protein: recombinant; tags: His-Sumo removed by Ulp1; chain copies: 2; blunt, 25 bp
T2 sequence: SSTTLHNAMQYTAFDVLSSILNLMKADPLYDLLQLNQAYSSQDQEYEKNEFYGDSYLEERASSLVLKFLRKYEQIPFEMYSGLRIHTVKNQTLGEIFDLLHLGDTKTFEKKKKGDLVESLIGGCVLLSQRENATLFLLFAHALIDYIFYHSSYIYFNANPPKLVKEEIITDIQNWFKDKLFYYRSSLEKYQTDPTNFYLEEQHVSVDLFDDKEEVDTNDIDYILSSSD

EhRNaseIII194 [3] = target: T3, EhRNaseIII194 (Entamoeba histolytica, UniProt C4LU64 2-194); experiment: EMSA; 5 mM Mg2+; up to 1e-3 M; EMSA (1x): 30 mM Tris-HCl pH 7.5, 30 mM NaCl, 5 mM MgCl2, 1 mM DTT, 0.1 mM EDTA, 5% glycerol; room temperature 10 min then ice 20 min; 6% native PAGE, 0.5x TBE; settings: protein: recombinant; tags: His-Sumo removed by Ulp1; chain copies: 2; blunt, 25 bp
T3 sequence: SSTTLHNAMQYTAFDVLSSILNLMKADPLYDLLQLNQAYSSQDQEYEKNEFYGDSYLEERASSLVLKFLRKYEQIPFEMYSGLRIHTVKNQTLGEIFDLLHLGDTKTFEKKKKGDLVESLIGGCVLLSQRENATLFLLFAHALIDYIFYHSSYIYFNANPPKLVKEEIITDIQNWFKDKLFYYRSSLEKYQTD

[4] = target: the molecule itself; experiment: crystal structure; EhRNaseIII229, sitting drop, 16 °C, 1.6 M (NH4)2SO4, 0.02 M MgCl2, 0.05 M Tris-HCl pH 7.5; apo (1.90 Å) and soaked with 10 mM MnCl2 (2.05 Å); P212121, molecular replacement
EhRNaseIII194 [5] = target: T3, EhRNaseIII194; experiment: EMSA; 5 mM Mg2+; shift at 5e-5 M; EMSA (1x): 30 mM Tris-HCl pH 7.5, 30 mM NaCl, 5 mM MgCl2, 1 mM DTT, 0.1 mM EDTA, 5% glycerol; room temperature 10 min then ice 20 min; 6% native PAGE, 0.5x TBE; settings: protein: recombinant; tags: His-Sumo removed by Ulp1; chain copies: 2; blunt, 100 bp
EhRNaseIII229 [6] = target: T2, EhRNaseIII229; experiment: EMSA; 5 mM Mg2+; almost complete shift at 3e-4 M; EMSA (1x): 30 mM Tris-HCl pH 7.5, 30 mM NaCl, 5 mM MgCl2, 1 mM DTT, 0.1 mM EDTA, 5% glycerol; room temperature 10 min then ice 20 min; 6% native PAGE, 0.5x TBE; settings: protein: recombinant; tags: His-Sumo removed by Ulp1; chain copies: 2; blunt, 100 bp
[7] = target: the molecule itself; experiment: crystal structure; SeMet-EhRNaseIII194, hanging drop, 16 °C, 1.26 M (NH4)2SO4, 0.1 M Hepes pH 7.8; P212121, SAD phasing, 2.10 Å
[8] = target: T1, EhRNaseIII256 (full-length EhRNaseIII); experiment: EMSA; 5 mM Mg2+; up to 1e-3 M; EMSA (1x): 30 mM Tris-HCl pH 7.5, 30 mM NaCl, 5 mM MgCl2, 1 mM DTT, 0.1 mM EDTA, 5% glycerol; room temperature 10 min then ice 20 min; 6% native PAGE, 0.5x TBE; settings: protein: recombinant, tags: His-Sumo removed by Ulp1, chain copies: 2, blunt
EhRNaseIII229 [9] = target: T2, EhRNaseIII229; experiment: as above; settings: protein: recombinant, tags: His-Sumo removed by Ulp1, chain copies: 2, blunt
EhRNaseIII194 [10] = target: T3, EhRNaseIII194; experiment: EMSA; 5 mM Mg2+; binds at 1e-4 M; EMSA (1x): 30 mM Tris-HCl pH 7.5, 30 mM NaCl, 5 mM MgCl2, 1 mM DTT, 0.1 mM EDTA, 5% glycerol; room temperature 10 min then ice 20 min; 6% native PAGE, 0.5x TBE; settings: protein: recombinant; tags: His-Sumo removed by Ulp1; chain copies: 2; blunt, 70 bp

B1: RNA25 (dsRNA)
RNA 1: GGGAGAAACGCGGCCUCUUUCUCCC
RNA 2: GGGAGAAAGAGGCCGCGUUUCUCCC
binding result ([1]; 25 bp): no binding | binding result (EhRNaseIII229 [2]): no binding | binding result (EhRNaseIII194 [3]): no binding

B2: EhRNaseIII229 (EhRNaseIII aa 1-229) (domain or fragment, Entamoeba histolytica, UniProt C4LU64 1-229, looked up)
chain: MSSTTLHNAMQYTAFDVLSSILNLMKADPLYDLLQLNQAYSSQDQEYEKNEFYGDSYLEERASSLVLKFLRKYEQIPFEMYSGLRIHTVKNQTLGEIFDLLHLGDTKTFEKKKKGDLVESLIGGCVLLSQRENATLFLLFAHALIDYIFYHSSYIYFNANPPKLVKEEIITDIQNWFKDKLFYYRSSLEKYQTDPTNFYLEEQHVSVDLFDDKEEVDTNDIDYILSSSD
notes: EhRNaseIII, the only RNaseIII protein of Entamoeba histolytica (256 aa), aa 1-229 (CTR truncated); Cloned from E. histolytica cDNA into pET28-Sumo; Residues after about 195 were disordered in the crystal; also called EhRNase229; source: E. coli BL21(DE3), purified (HisTrap, Ulp1 digestion, HisTrap, HiTrap Q, Superdex 75); not shown: His-Sumo, N-terminal, cleaved
stoichiometry N [4]: 2

B3: RNA100 (dsRNA)
RNA 1: GGGAGAAACGCGGCCUCUUCUUAUUUAUGGCGACAUGUUGUGCCACAUAUUGAGCCAGUAGCGCGGUGUAUUAUACCAGACCUUAUUGGUAUGGUCUCCC
RNA 2: GGGAGACCAUACCAAUAAGGUCUGGUAUAAUACACCGCGCUACUGGCUCAAUAUGUGGCACAACAUGUCGCCAUAAAUAAGAAGAGGCCGCGUUUCUCCC
Kd ([1]; 100 bp): ~600 µM | binding signal (EhRNaseIII194 [5]): ~6 fold affinity vs EhRNaseIII256 (2-fold vs EhRNaseIII229) | binding signal (EhRNaseIII229 [6]): > 2 fold affinity vs EhRNaseIII256 (at least)

B4: SeMet-EhRNaseIII194 (selenomethionine-labeled EhRNaseIII, aa 1-194) (domain or fragment, Entamoeba histolytica, UniProt C4LU64 1-194, looked up)
chain: MSSTTLHNAMQYTAFDVLSSILNLMKADPLYDLLQLNQAYSSQDQEYEKNEFYGDSYLEERASSLVLKFLRKYEQIPFEMYSGLRIHTVKNQTLGEIFDLLHLGDTKTFEKKKKGDLVESLIGGCVLLSQRENATLFLLFAHALIDYIFYHSSYIYFNANPPKLVKEEIITDIQNWFKDKLFYYRSSLEKYQTD
modifications: selenomethionine substituted (Se-Met) for methionine
notes: EhRNaseIII, the only RNaseIII protein of Entamoeba histolytica (256 aa), aa 1-194 (CTR truncated); Cloned from E. histolytica cDNA into pET28-Sumo; also called EhRNase194; SeMet-RNaseIII194; source: E. coli BL21(DE3) in M9 medium with Se-Met, purified (HisTrap, Ulp1 digestion, HisTrap, HiTrap Q, Superdex 75); not shown: His-Sumo, N-terminal, cleaved
stoichiometry N [7]: 2

B5: RNA70 (dsRNA)
RNA 1: GGGAGAAACGCGGCCUCUUCUUAUUUAUGGCGACAUGUUGUGCCACAUAUUGAGCCAGUAGCGCUCUCCC
RNA 2: GGGAGAGCGCUACUGGCUCAAUAUGUGGCACAACAUGUCGCCAUAAAUAAGAAGAGGCCGCGUUUCUCCC
binding result ([8]; 70 bp): no binding | binding result (EhRNaseIII229 [9]; 70 bp): no binding | binding result (EhRNaseIII194 [10]): binds

B6: RNA50 (dsRNA)
RNA 1: GGGAGAAACGCGGCCUCUUCUUAUUUAUGGCGACAUGUUGUGCCUCUCCC
RNA 2: GGGAGAGGCACAACAUGUCGCCAUAAAUAAGAAGAGGCCGCGUUUCUCCC
binding result ([8]; 50 bp): no binding | binding result (EhRNaseIII229 [9]; 50 bp): no binding

Reference: article PMC5357909, “Structural and functional studies of a noncanonical Dicer from Entamoeba histolytica” (Scientific Reports, 2017)
